US20220251166A1 (Chugai, published 2022)

Target: human CD3 on Jurkat luciferase reporter T cells (human)
Assay: cell-based or functional assay

Row | relative luciferase activity (fold, maximum), Jurkat luciferase reporter T cells co-cultured with dead (MTX treated) Ba/F3 cells [fold] | relative luciferase signal (fold induction), Jurkat luciferase reporter T cells co-cultured with live (untreated) Ba/F3 cells [fold] | Binder | also measured
1 | – | – | TR01H113-mF18/TR01L0011-mk1 (anti-CD3) (antibody, mouse IgG1, kappa) heavy: QVQLVESGGGVVQPGGSLRLSCAASGFTFSNAWMHWVRQAPGKGLEWVAQIKDKSQNYATYVAESVKGRFTISRADSKNSIYLQMNSLKTEDTAVYYCRYVHYAAGYGVDIWGQGTTVTVSSAKTTPPSVYPLAPGSAAQTNSMVTLGCLVKGYFPEPVTVTWNSGSLSSGVHTFPAVLQSDLYTLSSSVTVPSSTWPSETVTCNVAHPASSTKVDKKIVPRDCGCKPCICTVKEVSKVFIFPPKPKDVLTITLTPKVTCVVVDISKDDPEVQFSWFVDDVEVHTAQTQPREEQFNSTFRSVSELPIMHQDWLNGKEFKCRVNSAAFPAPIEKTISKTKGRPKAPQVYTIPPPKEQMAKDKVSLTCMITDFFPEDITVEWQWNGQPAENYKNTQPIMDTDGSYFVYSKLNVQKSNWEAGNTFTCSVLHEGLHNHHTEKSLSHSPGK light: DIVMTQSPLSLPVTPGEPASISCRSSQPLVHSNRNTYLHWYQQKPGQAPRLLIYKVSNRFSGVPDRFSGSGSGTDFTLKISRVEAEDVGVYYCGQGTQVPYTFGQGTKLEIKRADAAPTVSIFPPSSEQLTSGGASVVCFLNNFYPKDINVKWKIDGSERQNGVLNSWTDQDSKDSTYSMSSTLTLTKDEYERHNSYTCEATHKTSTSPIVKSFNRNEC | relative fold induction of luciferase, Jurkat luciferase reporter T cells co-cultured with dead (MTX treated) Ba/F3 cells: ~20 fold; relative luciferase signal (fold induction, maximum), Jurkat luciferase reporter T cells co-cultured with live (untreated) Ba/F3 cells: ~22 fold
2 | ~46 | ~5 | TR01H113-mF18.G3S2.mC9.131/TR01L0011-mk1 (anti-CD3-Clec9A CTLD) (antibody, mouse IgG1, kappa) heavy: QVQLVESGGGVVQPGGSLRLSCAASGFTFSNAWMHWVRQAPGKGLEWVAQIKDKSQNYATYVAESVKGRFTISRADSKNSIYLQMNSLKTEDTAVYYCRYVHYAAGYGVDIWGQGTTVTVSSAKTTPPSVYPLAPGSAAQTNSMVTLGCLVKGYFPEPVTVTWNSGSLSSGVHTFPAVLQSDLYTLSSSVTVPSSTWPSETVTCNVAHPASSTKVDKKIVPRDCGCKPCICTVKEVSKVFIFPPKPKDVLTITLTPKVTCVVVDISKDDPEVQFSWFVDDVEVHTAQTQPREEQFNSTFRSVSELPIMHQDWLNGKEFKCRVNSAAFPAPIEKTISKTKGRPKAPQVYTIPPPKEQMAKDKVSLTCMITDFFPEDITVEWQWNGQPAENYKNTQPIMDTDGSYFVYSKLNVQKSNWEAGNTFTCSVLHEGLHNHHTEKSLSHSPGKGGGSGGGSGSDCSPCPHNWIQNGKSCYYVFERWEMWNISKKSCLKEGASLFQIDSKEEMEFISSIGKLKGGNKYWVGVFQDGISGSWFWEDGSSPLSDLLPAERQRSAGQICGYLKDSTLISDKCDSWKYFICEKKAFGSCI light: DIVMTQSPLSLPVTPGEPASISCRSSQPLVHSNRNTYLHWYQQKPGQAPRLLIYKVSNRFSGVPDRFSGSGSGTDFTLKISRVEAEDVGVYYCGQGTQVPYTFGQGTKLEIKRADAAPTVSIFPPSSEQLTSGGASVVCFLNNFYPKDINVKWKIDGSERQNGVLNSWTDQDSKDSTYSMSSTLTLTKDEYERHNSYTCEATHKTSTSPIVKSFNRNEC | –
3 | ~54 | ~5 | TR01H113-mF18.G3S2.mC9ECD57/TR01L0011-mk1 (anti-CD3-Clec9A ECD) (antibody, mouse IgG1, kappa) heavy: QVQLVESGGGVVQPGGSLRLSCAASGFTFSNAWMHWVRQAPGKGLEWVAQIKDKSQNYATYVAESVKGRFTISRADSKNSIYLQMNSLKTEDTAVYYCRYVHYAAGYGVDIWGQGTTVTVSSAKTTPPSVYPLAPGSAAQTNSMVTLGCLVKGYFPEPVTVTWNSGSLSSGVHTFPAVLQSDLYTLSSSVTVPSSTWPSETVTCNVAHPASSTKVDKKIVPRDCGCKPCICTVKEVSKVFIFPPKPKDVLTITLTPKVTCVVVDISKDDPEVQFSWFVDDVEVHTAQTQPREEQFNSTFRSVSELPIMHQDWLNGKEFKCRVNSAAFPAPIEKTISKTKGRPKAPQVYTIPPPKEQMAKDKVSLTCMITDFFPEDITVEWQWNGQPAENYKNTQPIMDTDGSYFVYSKLNVQKSNWEAGNTFTCSVLHEGLHNHHTEKSLSHSPGKGGGSGGGSKFFQVSSLVLEQQERLIQQDTALVNLTQWQRKYTLEYCQALLQRSLHSGTDASTGPVLLTSPQMVPQTLDSKETGSDCSPCPHNWIQNGKSCYYVFERWEMWNISKKSCLKEGASLFQIDSKEEMEFISSIGKLKGGNKYWVGVFQDGISGSWFWEDGSSPLSDLLPAERQRSAGQICGYLKDSTLISDKCDSWKYFICEKKAFGSCI light: DIVMTQSPLSLPVTPGEPASISCRSSQPLVHSNRNTYLHWYQQKPGQAPRLLIYKVSNRFSGVPDRFSGSGSGTDFTLKISRVEAEDVGVYYCGQGTQVPYTFGQGTKLEIKRADAAPTVSIFPPSSEQLTSGGASVVCFLNNFYPKDINVKWKIDGSERQNGVLNSWTDQDSKDSTYSMSSTLTLTKDEYERHNSYTCEATHKTSTSPIVKSFNRNEC | –
4 | – | – | TX_3G4VH-mBS1001b/3G4VL-mk1//TR01H113-mBS1001a/TR01L0011-mk1 (anti-PS(3G4)//CD3) (bispecific antibody, mouse IgG1, kappa) heavy 1: EVQLQQSGPELEKPGASVKLSCKASGYSFTGYNMNWVKQSHGKSLEWIGHIDPYYGDTSYNQKFRGKATLTVDKSSSTAYMQLKSLTSEDSAVYYCVKGGYYGHWYFDVWGAGTTVTVSSAKTTPPSVYPLAPGSAAQTNSMVTLGCLVKGYFPEPVTVTWNSGSLSSGVHTFPAVLQSDLYTLSSSVTVPSSTWPSETVTCNVAHPASSTKVDKKIVPRDCGCKPCICTVKEVSKVFIFPPKPKDVLTITLTPKVTCVVVDISKDDPEVQFSWFVDDVEVHTAQTQPREEQFNSTFRSVSELPIMHQDWLNGKEFKCRVNSAAFPAPIEKTISKTKGRPKAPQVYTIPPPKEQMAKDKVSLTCMITDFFPEDITVEWQWNGQPAENYKNTQPIMRTDGSYFVYSKLNVQKSNWEAGNTFTCSVLHEGLHNHHTEKSLSHSPGK light 1: DIQMTQSPSSLSASLGERVSLTCRASQDIGSSLNWLQQGPDGTIKRLIYATSSLDSGVPKRFSGSRSGSDYSLTISSLESEDFVDYYCLQYVSSPPTFGAGTKLELKRADAAPTVSIFPPSSEQLTSGGASVVCFLNNFYPKDINVKWKIDGSERQNGVLNSWTDQDSKDSTYSMSSTLTLTKDEYERHNSYTCEATHKTSTSPIVKSFNRNEC heavy 2: QVQLVESGGGVVQPGGSLRLSCAASGFTFSNAWMHWVRQAPGKGLEWVAQIKDKSQNYATYVAESVKGRFTISRADSKNSIYLQMNSLKTEDTAVYYCRYVHYAAGYGVDIWGQGTTVTVSSAKTTPPSVYPLAPGSAAQTNSMVTLGCLVKGYFPEPVTVTWNSGSLSSGVHTFPAVLQSDLYTLSSSVTVPSSTWPSETVTCNVAHPASSTKVDKKIVPRDCGCKPCICTVKEVSKVFIFPPKPKDVLTITLTPKVTCVVVDISKDDPEVQFSWFVDDVEVHTAQTQPREEQFNSTFRSVSELPIMHQDWLNGKEFKCRVNSAAFPAPIEKTISKTKGRPKAPQVYTIPPPKEQMAKDKVSLTCMITDFFPEDITVEWQWNGQPAENYKNTQPIMDTDGSYFVYSELNVQKSNWEAGNTFTCSVLHEGLHNHHTEKSLSHSPGK light 2: DIVMTQSPLSLPVTPGEPASISCRSSQPLVHSNRNTYLHWYQQKPGQAPRLLIYKVSNRFSGVPDRFSGSGSGTDFTLKISRVEAEDVGVYYCGQGTQVPYTFGQGTKLEIKRADAAPTVSIFPPSSEQLTSGGASVVCFLNNFYPKDINVKWKIDGSERQNGVLNSWTDQDSKDSTYSMSSTLTLTKDEYERHNSYTCEATHKTSTSPIVKSFNRNEC | luciferase signal (fold induction) at 5 nM antibody, Jurkat reporter T cells co-cultured with dead Ba/F3 cells: 16 fold; luciferase signal (fold induction) at 25 nM antibody, Jurkat reporter T cells co-cultured with dead Ba/F3 cells: 70 fold
